Data taken from patent publication EP0574621A1.
Read-outs that look alike come from different tables or passages of the source.

What was measured:
von Willebrand factor [1] = target: von Willebrand factor (UniProt P04275)
von Willebrand factor [2] = target: von Willebrand factor (UniProt P04275); assay: cell-based or functional assay
von Willebrand factor [3] = target: von Willebrand factor (UniProt P04275); assay: ratio of IC50 values from the competitive radiolabelled botrocetin binding assay
von Willebrand factor [4] = target: von Willebrand factor (UniProt P04275); assay: competitive inhibition of 125I-two-chain botrocetin binding to vWF in solution by unlabeled two-chain botrocetin; vWF captured on 2-2-9 IgG coated wells

Row | Substance | IC50 (von Willebrand factor [1]) [µg/mL] | Half maximal binding capacity (BM50) (von Willebrand factor [2]) [µg/mL] | concentration giving maximal vWF binding to glycoprotein Ib (von Willebrand factor [2]) [µg/mL] | minimum concentration necessary to induce vWF binding to glycoprotein Ib (von Willebrand factor [2]) [µg/mL] | fold greater activity (BM50) than one-chain botrocetin (von Willebrand factor [2]) [fold] | fold higher affinity than one-chain botrocetin (von Willebrand factor [3]) [fold] | IC50 (von Willebrand factor [4]) [µg/mL]
1 | one-chain botrocetin | 55 | 5.5 | 17 | 1 |  |  | 
2 | two-chain botrocetin |  | 0.16 |  |  | 34 | 32 | 1.7
